Biological target: C3b

B1: Complement Factor I (FI) (protein)
chain: KVTYTSQEDLVEKKCLAKKYTHLSCDKVFCQPWQRCIEGTCVCKLPYQCPKNGTAVCATNRRSFPTYCQQKSLECLHPGTKFLNNGTCTAEGKFSVSLKHGNTDSEGIVEVKLVDQDKTMFICKSSWSMREANVACLDLGFQQGADTQRRFKLSDLSINSTECLHVHCRGLETSLAECTFTKRRTMGYQDFADVVCYTQKADSPMDDFFQCVNGKYISQMKACDGINDCGDQSDELCCKACQGKGFHCKSGVCIPSQYQCNGEVDCITGEDEVGCAGFASVTQEETEILTADMDAERRRIKSLLPKLSCGVKNRMHIRRKRIVGGKRAQLGDLPWQVAIKDASGITCGGIYIGGCWILTAAHCLRASKTHRYQIWTTVVDWIHPDLKRIVIEYVDRIIFHENYNAGTYQNDIALIEMKKDGNKKDCELPRSIPACVPWSPYLFQPNDTCIVSGWGREKDNERVFSLQWGEVKLISNCSKFYGNRFYEKEMECAGTYDGSIDACKGDSGGPLVCMDANNVTYVWGVVSWGENCGKPEFPGVYTKVANYFDWISYHVGRPFISQYNV
in vitro C3b breakdown assay (C3b incubated with FI and a fragment of cofactor CR1; time course by gel electrophoresis and GluC/SRM-MS): the formation of C3b fragments iC3b, C3f and C3c, and loss of intact C3b can be clearly detected over time
